Experimental data from article PMC5615210, “Design and Characterization of a Human Monoclonal Antibody that Modulates Mutant Connexin 26 Hemichannels Implicated in Deafness and Skin Disorders” (Frontiers in Molecular Neuroscience, 2017).
Ends that are not written are not given here. * marks the point of attachment. Biotin = O=C1N[C@H]2[C@H](CS[C@H]2CCCCC(=O)*)N1

Assays:
[1] = molecular target: T1, pepEC1.1, peptide corresponding to residues 41-56 of Cx26 (Homo sapiens); assay: ELISA; avidin-coated wells (1 ug/well), biotinylated pepEC1.1 captured (0.05 ug/well), abEC1.1 (1 mg/ml, diluted 1:100 in M-PBST) 1 h at 37 C, goat anti-human HRP conjugate, ABTS, OD at 405 nm; details: both partners purified
T1 construct: connexin 26 (Cx26), residues 41-56 in the EC1 domain; also called bait peptide; cognate peptide; source: synthetic peptide (Chinese Peptide Company)
T1 chain: Biotin-KEVWGDEQADFVCNTL

[2] = molecular target: endogenous Cx26 of mouse cochlear organotypic cultures (Mus musculus C57BL6/N, UniProt Q00977); assay: immunostaining of cells or tissue; cochlear organotypic cultures of P5 mice fixed in 4% PFA, not permeabilised, abEC1.1 (2 ug/ml) overnight at 4 C, fluorescein anti-human IgG secondary antibody, confocal microscopy; control with abEC1.1 pre-incubated overnight with pepEC1.1 at 1:10 (w/w); details: one partner purified

binding result [1]: binds
binding result [2]: binds
B1: abEC1.1 antibody (scFv-Fc fusion protein) (scFv, V domains shown)
VH: QVQLQQSGGGVVQPGRSLRLSCAASGFTFSSYAMHWVRQAPGKGLEWVAVISHGGSNKYYADSVKGRFTISRDNSKNTLYLQMNSLRAEDTAVYYCARDFSWRGYYMDVWGKGTLVTVSS
VL: ETTLTQSPATLSLSPGERATLSCRASQSISSYLAWYQQKPGQAPRLLIYGASTRATGIPDRFSGSGSGTDFTLTISRLEPEDFAVYYCQQYGSSPRTFGGGTKVEIK
notes: scFv domain of abEC1.1 (VH and VL joined by a linker of seven amino acids); scFv-Fc format from a modified pFUSE vector (pfuse-hg1fc2); also called wild type abEC1.1; source: FreeStyle 293-F cells, transfected, purified (HiTrap Protein A HP); not shown: Fc (hinge and Fc of human IgG1), C-terminal, kept
